Experiments:
[1] = target: T1, REK7, endogenous, on rat embryonic (E16) cortical neurons (rat, UniProt P54757 27-1005 at identity 0.97)); assay: cell-based or functional assay
T1 chain: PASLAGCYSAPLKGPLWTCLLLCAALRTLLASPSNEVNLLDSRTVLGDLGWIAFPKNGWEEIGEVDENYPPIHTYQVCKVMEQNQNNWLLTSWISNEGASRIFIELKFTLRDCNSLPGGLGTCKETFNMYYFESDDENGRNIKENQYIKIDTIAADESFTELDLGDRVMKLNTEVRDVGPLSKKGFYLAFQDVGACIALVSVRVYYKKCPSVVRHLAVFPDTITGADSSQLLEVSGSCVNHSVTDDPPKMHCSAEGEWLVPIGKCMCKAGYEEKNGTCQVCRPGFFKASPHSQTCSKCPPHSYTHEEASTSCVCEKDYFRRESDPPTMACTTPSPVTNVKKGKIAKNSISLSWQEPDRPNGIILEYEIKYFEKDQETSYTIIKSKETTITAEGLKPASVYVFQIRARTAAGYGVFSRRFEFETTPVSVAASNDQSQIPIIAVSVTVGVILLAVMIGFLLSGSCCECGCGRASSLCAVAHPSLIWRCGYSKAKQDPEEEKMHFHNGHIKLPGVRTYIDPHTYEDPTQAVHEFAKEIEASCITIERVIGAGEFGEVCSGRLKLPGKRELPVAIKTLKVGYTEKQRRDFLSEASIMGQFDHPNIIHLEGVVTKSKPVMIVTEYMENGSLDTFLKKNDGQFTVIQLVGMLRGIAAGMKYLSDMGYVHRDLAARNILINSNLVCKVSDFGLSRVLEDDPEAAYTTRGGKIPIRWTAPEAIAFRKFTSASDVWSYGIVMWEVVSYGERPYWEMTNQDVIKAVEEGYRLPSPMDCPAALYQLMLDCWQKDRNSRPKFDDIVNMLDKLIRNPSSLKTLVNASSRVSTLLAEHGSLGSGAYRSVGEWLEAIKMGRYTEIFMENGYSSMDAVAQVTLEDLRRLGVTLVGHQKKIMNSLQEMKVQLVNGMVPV

[2] = target: CD4-IgG (human, UniProt P01730 26-205); assay: immunoaffinity chromatography of BT20 conditioned medium on CD4-IgG-Protein A precolumn; SDS-PAGE, silver stain
Protocol: 200 ml of BT20 conditioned media, concentrated as described above from 12 liters and frozen, was thawed, centrifuged at 17,000 rpm in a Sorvall SS34 rotor, and filtered through a 0.45 μm filter to clarify the solution. The 200 ml was pumped through a 2.0 ml CD4-IgG—Protein A (CD4-IgG covalently linked to Protein A through IgG moiety) immunoaffinity precolumn and a 1.0 ml REK7-IgG - Protein A (REK7-IgG covalently linked to Protein A through IgG moiety) immunoaffinity column in tandem with a flow rate of 0.5 ml/min. All chromatography was carried out at 4° C. Following one complete passage of the media through both columns, the flow rate was reduced to 0.2 ml/min, and the media was recycled through both columns. Following the loading of the REK7-IgG column, the two column were separated from each other, washed with 10 column volumes of PBS, and then eluted with four separate washes of 100 mM sodium citrate, pH 3.0 (2 ml each for the CD4-IgG column and 1 ml each for the REK7-IgG column). The first two washes were allowed to immediately flow through the column whereas the last two were incubated for 15 minutes before collection. The eluates were brought to pH 7.4 by the addition of 50 mM potassium phosphate, and an aliquot of each was analyzed by sodium dodecycl sulfate (SDS)-polyacrylamide gel electrophoresis (PAGE). […]

B1: soluble AL-1 (purified, secreted form without the GPI membrane anchor) (ligand)
chain: QDPGSKAVADRYAVYWNSSNPRFQRGDYHIDVCINDYLDVFCPHYEDSVPEDKTERYVLYMVNFDGYSACDHTSKGFKRWECNRPHSPNGPLKFSEKFQLFTPFSLGFEFRPGREYFYISSAIPDNGRRSCLKLKVFVRPTNSCMKTIGVHDRVFDVNDKVENSLEPADDTVHESAEPSRGEN
notes: also called purified soluble AL-1; REK7 ligand from BT20 conditioned medium
In the case of B1, the “tyrosine autophosphorylation of REK7 (immunoprecipitation with anti-REK7, anti-phosphotyrosine immunoblot)” value [1] is reported as roughly 2 fold and the binding result [2] is reported as “no binding”.
